Values of other authors, collected in paper PMC11720126.
Where two headings read alike, the source gives them in different places.

Experiments:
[1] = molecular target: Calmodulin (Homo sapiens) (UniProt P0DP23)
[2] = molecular target: Calmodulin (Homo sapiens) (UniProt P0DP23); remark: listed apart in the source
[3] = molecular target: Calmodulin (Homo sapiens) (UniProt P0DP23); remark: listed apart in the source
[4] = molecular target: Calmodulin (Homo sapiens) (UniProt P0DP23); remark: listed apart in the source

Kd [1] | Kd [2] | Kd [3] | Kd [4] | Substance
0.8 µM | 55 µM |  |  | STIM1 PBD (from UniProt Q13586)
 |  | 150 µM | 0.9 µM | STIM2 PBD (from UniProt Q9P246)
